Measured values as given in the supplement of paper PMC9170038.

Test system: MS2 coat protein
Test: apparent KD of MS2 coat protein; designed switch direction (-1 OFF switch, 1 ON switch): -1; higher = weaker reporter binding
In short: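 RNA switches sharing common flanks were transcribed by stalled E. coli RNA polymerase on Illumina chips. A doubling series of SNAP-549-labelled MS2 coat protein, from 0.7 or 1.5 nM to 3 µM, was applied in Tris-HCl pH 7.5 buffer with KCl, MgCl2, BSA, DTT, tRNA and Tween-20. Each step lasted 0.8–1.5 h at the bottom of the series and 10–20 min at the top. Normalised cluster fluorescence was curve-fitted, giving apparent KD as the per-design median over clusters.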

[1] = input ligand: microRNA oligo, concentration not stated
[2] = Eterna round: R95, input ligand: FMN 200 uM
[3] = Eterna round: R95, input ligand: microRNA oligo, concentration not stated
[4] = Eterna round: R95, input ligand: none

Sequence | apparent KD of MS2 coat protein (input ligand: FMN 200 uM) | apparent KD of MS2 coat protein [1] | apparent KD of MS2 coat protein (input ligand: none) | apparent KD of MS2 coat protein [2] | apparent KD of MS2 coat protein [3] | apparent KD of MS2 coat protein [4]
AGUACUCACACGAAAGUGUUAGUACAAUAAGCUUGUGAAACAUGAGGAUCACCCAUGUCCUCAUAAGCUCGUCUUAU [salish99_TOv2_r3_018] (Eterna round: R96, puzzle: Sensor v3, turn-off variant 2) | 16.2 nM | 430 nM | 18.1 nM |  |  | 
AGAAAUGCCCAUGGCCACAAGCUCUUUGCUUGUCUUACUACAUGAGGAUCACCCAUGUAACAUGGGCUCCUGAUAAU [Been] (puzzle: Sensor v3, turn-off variant 2) |  |  |  | 12.2 nM | 9.19 nM | 11.3 nM
CUUUUGUGAGGAUAUCAGUAGUAAAAAAAUAAAAUUAUUACUGAGAAGGCACAUGAGGAUCACCCAUGUUCCUC [salish99_ex4_r3_028] (puzzle: Exclusion 4) |  |  |  |  | 36.3 nM | 
UUAUUAAUUAAUAUUAUAAGAUCACAUGAGGAUCACCCAUGUCAGGAUAUCAGCUCGUGUAGAGCUGAGAAGGGACAAAUAAUA [ExNG3/15-B3] (Eterna round: R96, puzzle: Exclusion NG 3) | 576 nM | 451 nM | 306 nM |  |  | 
AUUACAUGAGGAUAUACAUGAGGAUCACCCAUGUAAAUAGCAGUGGUAGUCAACUCGAGUAGAAGGCGUAACGU [Eternabot (L1) Solution 51] (Eterna round: R97, puzzle: Exclusion 3) | 67.8 nM |  | 58.7 nM |  |  | 
GUCGAGUGAGGAUAUGGUGAGUAGUGCCAGAGCGCUGCUCACCAGAAGGCACAUGAGGAUCACCCAUGUAUAGC [Mat - Exclusion 4 - Mod of JL - D13] (puzzle: Exclusion 4) |  |  |  |  | 15.2 nM | 
UGUGUCUCAGGAGGAUAUCUCUCGGUUGCCGUUAGAGAAGGCUUGAAACAUGAGGAUCACCCAUGUAAAUGGCCCGUCCUCCAA [Lalecetege] (Eterna round: R96, puzzle: Exclusion NG 1) | 12.2 nM | 11.3 nM | 14.1 nM |  |  | 
CAUGAUUGGCGAGGAUAUUGACCUAGUUAGCGACGAGAAGGCGCCUGUCACAUGAGGAUCACCCAUGUGAAUCUGGUGAAAGAG [Ex NG1 #92] (Eterna round: R96, puzzle: Exclusion NG 1) | 21.6 nM | 13.3 nM | 18.3 nM |  |  | 
AAGAGCAUCGGAGGAUAUGGAGCUGAAACGGCGCUAGAAGGCCGUGCAGUGUAACAUGAGGAUCACCCAUGUAGGGACCUCUAA [EX ng 1 4] (Eterna round: R96, puzzle: Exclusion NG 1) | 244 nM | 82.9 nM | 104 nM |  |  | 
GUUGUUUAUGUAGGAUAUGCCUGGCGAGCCUAAGCAGAAGGACAUGAGGAUCACCCAUGUAUUGCGGUCUGCGUUCAGAUCGCU [salish99_ExNG1_r4_018] (Eterna round: R96, puzzle: Exclusion NG 1) | 38.3 nM | 9.94 nM | 18.9 nM |  |  | 
CUAGAUCUUCGGAUCUAGUACAUGAGGAUCACCCAUGUGACGAGUUGAUCCUCAUACAAGCUUUUUGCUCGUCUUAU [Sensor v3 - Turn-off variant 1 - 16] (puzzle: Sensor v3, turn-off variant 1) |  |  |  | 19.3 nM | 21.3 nM | 11.9 nM
CGAAUUCGUUAGGAUAUGAGGCAGAGGUCCGCCUCAGAAGGAAUGACAUGAGGAUCACCCAUGUAGACCCAAGG [Eternabot (Original) Solution 1] (Eterna round: R97, puzzle: Exclusion 6) | 18.9 nM |  | 19.1 nM |  |  | 
CUGUGCACGCUGCGGUCCUACAUGAGGAUCACCCAUGUGGUCUGGUGGCGUGGGUCACCGGACUUGGCUCGUCUUGU [salish99_S_TOV1_R5_064] (Eterna round: R97, puzzle: Sensor, turn-off variant 1) | 35.7 nM |  | 42.3 nM |  |  | 
GAUCAACAUGAGGAUCACCCAUGUGAGGAUAUGAUACUAUGUACUUCGGUACAUAGUAUCAGAAGGCACAUAAA [Ex1-3: 38] (puzzle: Exclusion 1) |  |  |  |  | 72.4 nM | 
UGAUCAGACCGAGGAUAUACAUGUAGGACGCACGUGAGUGCGUCCAGUACAUGAGGAUCACCCAUGUAGAAGGCGGUCUGAUCU [JL ENG2 1.95] (Eterna round: R96, puzzle: Exclusion NG 2) | 309 nM | 78.2 nM | 76.1 nM |  |  | 
CUCUUGUCAGGAUAUCAACGCCGCCCACAUGGGCAGCGAAAUGAGAAGGGACAUGAGGAUCACCCAUGUUAAAA [Retema] (puzzle: Exclusion 4) |  |  |  | 30.4 nM | 161 nM | 218 nM
GGGAGGGAUGCAGGAUAUGCGAGGGAGGGAGGAGUAGAAGGGCAUGAGGAUCACCCAUGUGACAUGAGGAUCACCCAUGUGGGA [Success - 29% A] (Eterna round: R96, puzzle: Exclusion NG 1) | 78 nM | 80.2 nM | 82 nM |  |  | 

Sequence | apparent KD of MS2 coat protein (input ligand: FMN 200 uM) | apparent KD of MS2 coat protein [1] | apparent KD of MS2 coat protein (input ligand: none) | apparent KD of MS2 coat protein [2] | apparent KD of MS2 coat protein [3] | apparent KD of MS2 coat protein [4]
GGUCAAGAACAGAUCCGCGCUGCCAUUGACCGCUCAUUUACAUGAGGAUCACCCAUGUUUUUUGCUCAUCUUGUUAC [Usdila] (puzzle: Sensor v3, turn-off variant 2) |  |  |  | 20.2 nM | 62.2 nM | 19.8 nM
CAUAGUUACUCAGGAUAUACUACAUGAGGAUCACCCAUGUAAUAAAUGAGAAUUUCGAAUGUAUAGUAGAAGGGAGAAAUCUAC [Ostracism 56 - Jieux - Exclusion NG 2] (Eterna round: R96, puzzle: Exclusion NG 2) | 18.3 nM | 14.7 nM | 23.8 nM |  |  | 
AGUCGGCGAGGAUAUACAUGAGGAUCACCCAUGUGUGAUCCUAGACCUGUAGGUCCAUGUAGAAGGCGCUGACA [Exclusion 3 - Was a mod at one point] (puzzle: Exclusion 3) |  |  |  |  | 18.8 nM | 
GUGAUAUAGUUAGUGGCCUACAUGAGGAUCACCCAUGUGAGGGAAAUGUUGAGGCGAAAGUUGUGUGCUCGUCUGUA [JR_SV3TOV1_Sub039] (puzzle: Sensor v3, turn-off variant 1) |  |  |  | 23.6 nM | 38.9 nM | 26.5 nM
GGUGCGUAUGUGAGGAUAUGCUGGUCCUUGGAUCGGCAGAAGGCACAUGAGGAUCACCCAUGUGGUGUCGUUCC [salish99_Bmod_ex4_100] (puzzle: Brourd's mod of Exclusion 4) |  |  |  |  | 114 nM | 
CUUCACCCACCAGAGCUCACCCACAUACCUACUCAGGUGACAUGAGGAUCACCCAUGUUUUUUGCCCGUCUUAUCUU [Vexebedi] (puzzle: Sensor v3, turn-off variant 2) |  |  |  | 28.3 nM | 216 nM | 30.4 nM
AAUAAGAGAGGAUAUACUAAAAUAUGAAUAAAAUAAAUAAAACAUGAGGAUCACCCAUGUAGAAGGCUCAAUAA [JMF's Not so obvious solution 6] (puzzle: Exclusion 2) |  |  |  | 23.1 nM | 19.2 nM | 24.7 nM
GCCAGAGCAGGAUAUUCAAUAUCACACAUGAGGAUCACCCAUGUCUAUCGAAAGAUAGAGGGAGAAGGGCUCUGGC [Mat - Exclusion 5 - Eli mod - D94] (puzzle: Exclusion 5) |  |  |  |  | 55.2 nM | 
CGGUGUAGAGGAUAUACGUGAAUAUAAGAACAUAAUAAUUAACAUGAGGAUCACCCAUGUAGAAGGCUAUAGCG [JR_Ex2_Sub081] (Eterna round: R97, puzzle: Exclusion 2) | 34.3 nM |  | 16.7 nM |  |  | 
GCCUACAGAGGAUAUACAAAUGUAUGAAACCUGUUUAGACGACAUGAGGAUCACCCAUGUAGAAGGCUGUGGGC [Eternabot (L1) Solution 85] (Eterna round: R97, puzzle: Exclusion 2) | 285 nM |  | 37.5 nM |  |  | 
CGUACUGAAGUAAGGAUAUUGUCUCGGAUACGAAACAAGAAGGUACAUGAGGAUCACCCAUGUUGACAGUACGA [Malc #30 mod 8] (puzzle: Brourd's mod of Exclusion 4) |  |  |  |  | 14 nM | 
AUUGAUAUUGAGGAUAUGCUUUUAUUUGUACUAGCAGAAGGCGAUACAUGAGGAUCACCCAUGUUUAUGGAAGU [JR_E6_Sub088] (puzzle: Exclusion 6) |  |  |  | 50.5 nM | 35.6 nM | 29.4 nM
AAGAAACAUGAGGAUCACCCAUGUGAGGAUAUGAACAAGAAAAGAAAAGAAAGAAGAAUCAGAAGGCACAAAGG [salish99-ex1_r3_047] (puzzle: Exclusion 1) |  |  |  | 102 nM | 49.2 nM | 84.7 nM
UUAAUUAAUUAAGGCUGAAGAUCACAUGAGGAUCACCCAUGUAAGGAUAUCAGCUCGUGUAGAGCUGAGAAGGUACAUGCAGCC [ExNG3/18-B3] (Eterna round: R96, puzzle: Exclusion NG 3) | 50.6 nM | 345 nM | 336 nM |  |  | 
CCAGGCAGUGUGAGGAUAUGCUGGUGCUUGCAUCAGCAGAAGGCACAUGAGGAUCACCCAUGUGAAGAGCUUGG [Mat - Exclusion 4 - JL Mod - D97] (puzzle: Brourd's mod of Exclusion 4) |  |  |  |  | 21.1 nM | 
GGUCUGCGAGGAUAUACAUGAGGAUCACCCAUGUGCGAGAAACUAGUGAGGUCGGUUGGUAGAAGGCGCGGACG [Mat - Exclusion 3 - Mod of JL D89] (puzzle: Exclusion 3) |  |  |  | 13.9 nM | 14 nM | 32.8 nM
GGUUGGCGAGGAUAUACAUGAGGAUCACCCAUGUGGUCCUGUGGAAAAAAAAACCUUUGUAGAAGGCGCGGGUC [salish99_ex3_r4_032] (Eterna round: R97, puzzle: Exclusion 3) | 415 nM |  | 534 nM |  |  | 
